The source of these data is patent US10188742B2, “Bi-specific antibodies and uses thereof” (ACADEMIA SINICA, priority 2014, dated 2019).

One series relates to A431 (EGFR+) tumor cells. As to the kind of experiment: Confocal live cell imaging of PEG-Qdot655 internalization. As to conditions: 10 μg/mL BsAb, 16 nM PEG-Qdot655. The class given is cell-based, human. The procedure:
The coverslips (30 mm) in POC chambers were coated with 10 μg/mL poly-L-lysine in PBS for 30 min at room temperature. The coverslips were washed twice with PBS and then 5×10^4 cells/chamber of A431 (EGFR+) tumor cells were seeded on the coverslips. A431 cells were incubated with 10 μg/mL of h6.3Fab×EGFR or h6.3Fab×CD19 BsAbs at 37° C. for 30 min containing 1 μg/mL of Hoechst 33342 and 100 nM of LysoTracker® Red DND-99 (Invitrogen Life Technologies Corporation, NY, USA). The cells were washed with culture medium for 2 times. Cell imaging was recorded with an Axiovert 200M Confocal Microscope (Carl Ziess Inc., Thornwood, N.Y.) after adding 16 nM of PEG-Qdot655 solution (Invitrogen Life Technologies Corporation, NY, USA).
To verify whether BsAb-targeted substance could be internalized by antigen-positive cancer cells, live cell imaging was performed by staining cells with lysosome tracker and BsAbs, followed by the addition and incubation of PEG-Qdot655.

The nature of series [1]: ELISA PEG binding of h6.3 BsAbs. As to conditions: FIG. 14A. The procedure: […] The plates were washed with PBS-T (PBS containing 0.05% Tween-20) three times. Rabbit anti-6×His (2 μg/mL) supplemented with HRP-conjugated goat anti-rabbit (2 μg/mL) or HRP-conjugated goat Ig anti human IgG Fab (2 μg/mL) (Jackson ImmunoResearch Laboratories, West Grove, Pa.) in 50 μL dilution buffer were added for 1 h at room temperature. The plates were washed with PBS-T (PBS containing 0.05% Tween-20) three times and with PBS two times. Bound peroxidase activity was measured by adding 150 μL/well ABTS substrate solution (BioLegend, San Diego, Calif.) for 30 min at room temperature. The absorbance (405 nm) of wells was measured in a microplate reader (Molecular Device, Menlo Park, Calif.).
The PEG-binding kinetics of h6-3Fab×EGFR and h6.3Fab×CD19 BsAbs were verified by Microscale Thermophoresis (MST) (FIGS. 14D and 14E).
Background: ELISA stands for enzyme-linked immunosorbent assay.

A further series concerns A431 (EGFR+) cells. As to the kind of experiment: Cytotoxicity assay of Doxisome with h6.3 BsAbs (3H-thymidine). The class given is cell-based, human. The settings on record: compared with Doxisome alone. The procedure: A431 (EGFR^high) and Raji (CD19^high) cells (5000 cells/well) were seeded in 96-well plates overnight. Fifteen microgram per mL of h6.3Fab×EGFR or h6.3Fab×CD19 BsAbs were added to the cells for 30 min at 37° C. and followed by graded concentrations of free doxorubicin or PEGylated liposomal doxorubicin (Doxisome®, Taiwan Liposome Company Ltd., Taipei, Taiwan) was added to the cells in triplicate at 37° C. for 4 h. The cells were subsequently washed once and incubated for an additional 48 h in fresh culture medium and then pulsed for 16 h with ^3H-thymidine (1 μCi/well). Results are expressed as percent inhibition of ^3H-thymidine incorporation into cellular DNA in comparison to untreated cells.
Next, the ability of whether h6.3Fab×CD19 and h6.3Fab×EGFR BsAbs could increase the cytotoxicity of the drug-loaded nanoparticles (NPs) to antigen-positive cancer cells was investigated. Raji (CD19+) and A431 (EGFR+) cells were incubated with h6.3Fab×CD19 and h6.3Fab×EGFR, followed by the addition of graded concentrations of Doxisome (i.e., PEGylated liposomal doxorubicin).

A further series relates to A431 cells (EGFR+). As to the kind of experiment: Flow cytometry: BsAb-directed PEG-liposome Texas Red / PEG-Qdot655 on cells. The settings on record: PEG-liposome Texas Red and PEG-Qdot655, 10 μg/mL BsAb. The class given is cell-based, human. The procedure:
PEG2×TAG72 or control PEG2×DNS BsAbs (10 μg/mL) were incubated with A-375 (TAG72−), MCF-7 (TAG72+), Jurkat (TAG72+) or OVCAR-3 (TAG72+) cells at 4° C. for 30 min followed by FITC-labeled goat anti-human immunoglobulin second antibody (2 μg/mL) (Jackson ImmunoResearch Laboratories, West Grove, Pa.) or FITC-labeled 4arm-PEG (2 μg/mL). Tumor-specific targeting of PEGylated compounds was also examined by staining A431 (EGFR^high), and Raji (CD19^high) cell lines with 10 μg/mL of h6.3Fab×EGFR or h6.3Fab×CD19 BsAbs in PBS containing 0.05% BSA (staining buffer) at 4° C. for 30 min. The cells were washed with cold PBS for 3 times. PEG-Qdot655 (8 nM) (Invitrogen, Grand Island, N.Y.) or PEG-liposomal Texas-Red (100 nm size, 50 μM, lipid conc.) (FormuMax Scientific, Palo Alto, Calif.) in staining buffer was added to cells for 30 min at 4° C. Raji cells (CD19+) or SKBR3 cells (HER2+) were incubated with 10 μg/ml h15-2b-knob/BU12-hole, h15-2b-knob/anti-Her2-hole, h6-3-knob/BU12-hole or h6-3-knob/anti-Her2-hole BsAbs, washed and incubated with 0.25 μg/ml FITC-labeled goat anti-human IgG or 10 nM methoxy-PEG Qdot 655 at 4° C. for 30 min. After washing with cold PBS, the surface fluorescence of 10^4 viable cells was measured by FACScaliber flow cytometer (Becton Dickinson, Mountain View, Calif., USA) then analyzed with Flowjo (Tree Star Inc., San Carlos, Calif., USA). […]

Series [2] concerns Ramos (CD19+) and A431 (EGFR+) tumor. As to the kind of experiment: In vivo optical imaging of PEG-NIR797 probes. The arrangement: species or system BALB/c nude mice. As to conditions: i.v. BsAb and PEG-NIR797; 45 min, 24 and 48 hours. The procedure: The mice were then imaged at 45 min, 24 and 48 hours after injection using an IVIS spectrum optical imaging system.
For a further series, the target named is BSA (Bos taurus, UniProt P02769). As to the kind of experiment: ELISA antigen binding of BsAbs, control protein. The procedure: The anti-PEG binding specificity of BsAbs was measured by adding graded concentrations of PEG2×TAG72, PEG2×DNS, hCC49 scFv, h6.3Fab×EGFR or h6.3Fab×CD19 in 50 μL 2% skim milk to the mucin, BSA-PEG5000, NH2-PEG3k-NH2 or BSA coated plates at RT for 1 h. The plates were washed with PBS-T (PBS containing 0.05% Tween-20) three times. Rabbit anti-6×His (2 μg/mL) supplemented with HRP-conjugated goat anti-rabbit (2 μg/mL) or HRP-conjugated goat Ig anti human IgG Fab (2 μg/mL) (Jackson ImmunoResearch Laboratories, West Grove, Pa.) in 50 μL dilution buffer were added for 1 h at room temperature. The plates were washed with PBS-T (PBS containing 0.05% Tween-20) three times and with PBS two times. Bound peroxidase activity was measured by adding 150 μL/well ABTS substrate solution (BioLegend, San Diego, Calif.) for 30 min at room temperature. The absorbance (405 nm) of wells was measured in a microplate reader (Molecular Device, Menlo Park, Calif.).
Binding of the BsAbs was detected by ELISA. Microtiter plates were first coated with antigens and then PEG2×TAG72, PEG2×DNS BsAbs or hCC49 (anti-TAG72) single chain antibody was added. After the plates were extensively washed to remove unbound antibodies, the remaining bound antibodies in each well were detected with HRP-conjugated secondary antibody. […] In sum, PEG2×TAG72 anti-PEG (hE11) BsAb of example 1.2 can bind both PEG and tumor antigens. […]

In the next series the test system is MDA-MB-468 cells (EGFR+). Put plainly: Cytotoxicity assay of Doxisome with h6.3 BsAbs (3H-thymidine). The class given is cell-based, human. The settings on record: compared with Doxisome alone.

Sequence of BSA (P02769 25-607): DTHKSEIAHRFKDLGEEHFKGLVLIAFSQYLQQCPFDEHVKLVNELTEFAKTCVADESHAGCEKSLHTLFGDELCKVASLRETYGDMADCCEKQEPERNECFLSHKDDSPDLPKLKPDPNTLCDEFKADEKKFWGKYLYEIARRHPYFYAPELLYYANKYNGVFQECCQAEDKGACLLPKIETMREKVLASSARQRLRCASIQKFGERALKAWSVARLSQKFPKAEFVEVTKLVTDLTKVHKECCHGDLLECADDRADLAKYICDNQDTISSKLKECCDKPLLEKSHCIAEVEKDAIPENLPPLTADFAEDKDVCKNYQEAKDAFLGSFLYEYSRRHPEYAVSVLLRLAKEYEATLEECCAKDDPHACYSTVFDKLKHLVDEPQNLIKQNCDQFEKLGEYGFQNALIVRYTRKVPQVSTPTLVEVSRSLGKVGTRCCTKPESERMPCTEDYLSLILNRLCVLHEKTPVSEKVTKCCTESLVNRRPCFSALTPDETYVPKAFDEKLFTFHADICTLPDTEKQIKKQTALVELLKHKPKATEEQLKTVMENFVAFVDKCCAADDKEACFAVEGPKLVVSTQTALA

B1: h6.3Fab×EGFR: monovalent humanized anti-PEG h6.3 Fab fused to 11F8 anti-EGFR dsFv; SEQ ID NO 9, 10, 4, 7, 6 (protein)
chain 1: DIVMTQSPDSLAVSLGERATINCKSSQSVLYSSNQMNYLAWYQQKPGQPPKLLIYWASTRESGVPDRFSGSGSGTDFTLTISSLQAEDVAVYYCLQYLSSWTFGGGTKLEIKTYSLSSTLTLSKADYEKHKLYACEVTHQGLSSPVTKSFNRGEC
chain 2: QVQLVQSGSELKKPGASVKVSCKASGYTFKNYGMNWVRQAPGQGLEWMGWINTYTGQPIYANDFKGRFVFSLDTSVSTAYLQISSLKAEDTAVYYCARDWGPYWGQGTLVTVSSASTKGPSVFPLAPSSKSTSGGTAALGCLVKDYFPEPVTVSWNSGALTSGVHTFPAVLQSSGLYSLSSVVTVPSSSLGTQTYICNVNHKPSNTKVDKRVEPKSCDK
chain 3: VDLVTVSSASTGGGSGQLGGGGS
chain 4: QVQLQESGPGLVKPSQTLSLTCTVSGGSISSGDYYWSWIRQPPGKCLEWIGYIYYSGSTDYNPSLKSRVTMSVDTSKNQFSLKVNSVTAADTAVYYCARVSIFGVGTFDYWGQGTLVTVSSGGGGSGGGGSGGGGSEIVMTQSPATLSLSPGERATLSCRASQSVSSYLAWYQQKPGQAPRLLIYDASNRATGIPARFSGSGSGTDFTLTISSLEPEDFAVYYCHQYGSTPLTFGCGTKAEIK
chain 5: TRHHHHHH
modifications: Humanized 6.3 VL-Ck; Humanized 6.3 VH-CH1; Peptide Linker; 11F8 anti-EGFR dsFv; 6xHis Tag
Regarding B1, the “uptake of PEG-Qdot655 into A431 cells (endocytic vesicles)” value with A431 (EGFR+) tumor cells is “displayed red fluorescence within endocytic vesicles”. The “binding to NH2-PEG10,000-NH2” value in series [1] is “bound to the NH2-PEG10,000-NH2”. In the series on A431 (EGFR+) cells, the “effect on cytotoxicity of Doxisome to A431 cells” value is given as “enhanced cytotoxicity of Doxisome”. For the same molecule, in the series with A431 cells (EGFR+), the “directing PEGylated substance to A431 cells” value was “capable of directing the PEGylated substance”. In addition, in series [2], the “PEG-NIR797 signal in A431 tumors” value is reported as “Enhanced signals of PEG-NIR797”. Besides, the “binding to BSA” value with BSA is “not to the control BSA protein”. For the same molecule, the “effect on cytotoxicity of Doxisome to MDA-MB-468 cells” value with MDA-MB-468 cells (EGFR+) was “enhanced cytotoxicity of Doxisome”.
